Literature values, collected in patent US6689582B1, “Polynucleotide molecules encoding proteins having proteinase inhibitor activity” (Bayer Pharmaceuticals Corporation, priority 1999, dated 2004).
Read-outs that look alike come from different tables or passages of the source. Ends that are not written are not given here.

What was measured:
[1] = biological target: plasma kallikrein (Homo sapiens, UniProt P03952)
[2] = biological target: thrombin (Homo sapiens, UniProt P00734)
[3] = biological target: T1, leukocyte elastase (Homo sapiens, UniProt P08246)
T1 sequence (P08246 30-267): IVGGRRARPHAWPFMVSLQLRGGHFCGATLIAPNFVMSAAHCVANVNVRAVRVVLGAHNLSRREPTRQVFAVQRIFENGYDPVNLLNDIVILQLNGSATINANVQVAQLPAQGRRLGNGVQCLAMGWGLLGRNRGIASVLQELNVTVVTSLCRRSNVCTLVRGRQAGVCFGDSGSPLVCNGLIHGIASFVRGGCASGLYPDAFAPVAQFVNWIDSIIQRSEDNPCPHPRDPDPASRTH

[4] = biological target: T2, cathepsin G (Homo sapiens, UniProt P08311)
T2 sequence (P08311 21-255): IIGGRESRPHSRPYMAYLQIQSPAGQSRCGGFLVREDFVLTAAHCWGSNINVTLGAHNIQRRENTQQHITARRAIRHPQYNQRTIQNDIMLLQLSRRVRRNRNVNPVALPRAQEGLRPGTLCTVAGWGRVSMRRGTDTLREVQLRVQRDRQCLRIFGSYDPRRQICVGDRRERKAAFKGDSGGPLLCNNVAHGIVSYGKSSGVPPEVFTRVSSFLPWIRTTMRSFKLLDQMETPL

[5] = biological target: T3, proteinase 3 (Homo sapiens, UniProt P24158)
T3 sequence (P24158 28-256): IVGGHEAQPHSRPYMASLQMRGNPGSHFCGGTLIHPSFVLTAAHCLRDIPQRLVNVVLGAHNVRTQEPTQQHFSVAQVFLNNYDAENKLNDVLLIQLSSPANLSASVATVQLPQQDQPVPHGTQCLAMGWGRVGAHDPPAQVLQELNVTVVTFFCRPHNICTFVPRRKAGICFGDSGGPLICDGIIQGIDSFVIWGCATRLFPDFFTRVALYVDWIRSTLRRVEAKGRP

Sequence of plasma kallikrein (P03952 20-638, species assumed): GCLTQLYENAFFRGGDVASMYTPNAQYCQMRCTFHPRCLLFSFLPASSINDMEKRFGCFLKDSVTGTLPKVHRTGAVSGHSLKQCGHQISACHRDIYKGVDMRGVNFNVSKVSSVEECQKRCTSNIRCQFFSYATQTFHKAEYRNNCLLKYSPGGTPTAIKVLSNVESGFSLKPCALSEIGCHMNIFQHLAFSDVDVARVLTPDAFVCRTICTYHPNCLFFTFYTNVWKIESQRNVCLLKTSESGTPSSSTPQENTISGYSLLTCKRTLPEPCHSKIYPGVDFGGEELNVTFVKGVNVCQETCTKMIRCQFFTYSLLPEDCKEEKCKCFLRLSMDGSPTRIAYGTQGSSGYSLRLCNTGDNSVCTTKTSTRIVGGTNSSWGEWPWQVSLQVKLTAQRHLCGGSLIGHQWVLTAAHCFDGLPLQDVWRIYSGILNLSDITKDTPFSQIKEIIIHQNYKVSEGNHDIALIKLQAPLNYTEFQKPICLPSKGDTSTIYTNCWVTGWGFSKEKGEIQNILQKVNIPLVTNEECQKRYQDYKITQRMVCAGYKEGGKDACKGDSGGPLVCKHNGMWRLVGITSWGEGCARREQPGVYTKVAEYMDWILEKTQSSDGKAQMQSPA

APP KD variant (T11D, P13H, M17A, I18H, S19P and F34Y): phage display derived plasma kallikrein inhibitor differing from APP KD at 6 key residues (VREVCSEQAEDGHCRAAHPRWYFDVTEGKCAPFYYGGCGGNRNNFDTEEYCMAVC; ends and bridges not checked; cysteine pairing not given here)
Ki [1]: ~0.015 nM
increase in binding affinity to plasma kallikrein compared to wild-type APP KD [1]: more than 10,000 fold

alpha 1-proteinase inhibitor [Arg358]: P1 variant of alpha 1-proteinase inhibitor
inhibition of thrombin (in words) [2]: potent inhibitor
inhibition of leukocyte elastase (in words) [3]: not

Alpha-1-proteinase: serpin family serine proteinase inhibitor, major serum inhibitor of elastase and cathepsin G
inhibition of cathepsin G (in words) [4]: inhibit
inhibition of cathepsin G (in words) ([4]; listed as Alpha 1-proteinase inhibitor): potent inhibitor

elafin: member of the mucous proteinase inhibitor family (AQEPVKGPVSTKPGSCPIILIRCAMLNPPNRCLKDTDCPGIKKCCEGSCGMACFVPQ; ends and bridges not checked; cysteine pairing not given here; UniProt P19957 61-117, looked up)
inhibition of proteinase 3 (in words) [5]: not

B1: SLPI: member of the mucous proteinase inhibitor family (protein, UniProt P03973 26-132, looked up)
Antileukoproteinase: SGKSFKAGVCPPKKSAQCLRYKKPECQSDWQCPGKKRCCPDTCGIKCLDPVDTPNPTRRKPGKCPVTYGQCLMLNPPNFCEMDGQCKRDLKCCMGMCGKSCVSPVKA
inhibition of proteinase 3 (in words) [5]: not

B2: Alpha-1-antichymotrypsin: serpin family proteinase inhibitor, physiological cathepsin G inhibitor (protein, UniProt P01011 24-423, looked up)
Alpha-1-antichymotrypsin: HPNSPLDEENLTQENQDRGTHVDLGLASANVDFAFSLYKQLVLKAPDKNVIFSPLSISTALAFLSLGAHNTTLTEILKGLKFNLTETSEAEIHQSFQHLLRTLNQSSDELQLSMGNAMFVKEQLSLLDRFTEDAKRLYGSEAFATDFQDSAAAKKLINDYVKNGTRGKITDLIKDLDSQTMMVLVNYIFFKAKWEMPFDPQDTHQSRFYLSKKKWVMVPMMSLHHLTIPYFRDEELSCTVVELKYTGNASALFILPDQDKMEEVEAMLLPETLKRWRDSLEFREIGELYLPKFSISRDYNLNDILLQLGIEEAFTSKADLSGITGARNLAVSQVVHKAVLDVFEEGTEASAATAVKITLLSALVETRTIVRFNRPFLMIIVPTDTQNIFFMSKVTNPKQA
inhibition of proteinase 3 (in words) [5]: not

B3: placental bikunin: human Kunitz family inhibitor, potent inhibitor of plasmin (protein, UniProt O43291 28-252, looked up)
Kunitz-type protease …: ADRERSIHDFCLVSKVVGRCRASMPRWWYNVTDGSCQLFVYGGCDGNSNNYLTKEECLKKCATVTENATGDLATSRNAADSSVPSAPRRQDSEDHSSDMFNYEEYCTANAVTGPCRASFPRWYFDVERNSCNNFIYGGCRGNKNSYRSEEACMLRCFRQQENPPLPLGSKVVVLAGLFVMVLILFLGASMVYLIRVARRNQERALRTVWSSGDDKEQLVKNTYVL
inhibition of leukocyte elastase (in words) [3]: not
